Results taken from PMC5421877, “SOCS3 inhibits the pathological effects of IL-22 in non-melanoma skin tumor-derived keratinocytes” (Oncotarget, 2017).

Test system: IL-22R1 phosphorylation
Assay: IP/WB of IL-22R1 phosphorylation in healthy keratinocytes (IL-22)
Format: cell-based, human
Details: IL-22 10 min, no peptide, n = 3
Procedure: Figure 5 KIR-ESS peptide inhibits IL-22-induced phosphorylation of STAT3 and Erk in healthy and SCC-derived keratinocytes (A) Protein extracts obtained from healthy keratinocytes (n = 3) pre-treated or not with 15 μM (left panel) or 75 μM (right panel), KIR, KIR-ESS and control (Ctrl1 or Ctrl2) peptides, and, then, stimulated or not with IL-22 for 20 min, were subjected to WB analysis to detect STAT3 (Tyr705), Erk and MEK phosphorylation. Filters were probed with anti-STAT3, -Erk and –MEK Abs (top). (B) Protein extracts obtained from healthy keratinocytes (n = 3) pre-treated or not with 75 μM KIR-ESS and control (Ctrl1) peptides, and, then, stimulated or not with IL-22 for 10 min, were subjected to immunoprecipitation for IL-22R1 and Jak1, and then analysed by WB to detect phosphorylated and unphosphorylated forms of the proteins. (C) Unphosphorylated and phosphorylated forms of STAT1 (Tyr701) and STAT3 (Tyr705) were monitored in keratinocytes treated with IFN-γ for 15 min by WB analysis (bottom). In all experimental groups, filters were stripped and re-probed with β-actin Ab. (D) Protein extracts were obtained from CAL27 (left panel) or CAL33 (right panel) lines treated or not with 75 μM peptides in presence of IL-22 or IFN-γ. WB was performed to detect basal and phosphorylated STAT1, STAT3 and Erk. […]

B1: IL-22: cytokine stimulus, R&D Systems (protein, UniProt Q9GZX6 34-179, looked up)
Interleukin-22: APISSHCRLDKSNFQQPYITNRTFMLAKEASLADNNTDVRLIGEKLFHGVSMSERCYLMKQVLNFTLEEVLFPQSDRFQPYMQEVVPFLARLSNRLSTCHIEGDDLHIQRNVQKLKDTVKKLGESGEIKAIGELDLLFMSLRNACI
For B1, the IL-22R1 phosphorylation induced was “induced molecular cascade implicating phosphorylation of IL-22R1, Tyk2 and Jak1”.
